The supplement of paper PMC5998384

Experiments:
HeLa Kyoto [1] = assay: solubility in G1/S (NP-40 vs SDS abundance) (log2 ratio); higher = more soluble; conditions: cell cycle stage: G1/S
HeLa Kyoto [2] = assay: solubility change mitosis vs G1/S (difference of NP-40 vs SDS log2 ratios) (log2 ratio difference); higher = more soluble in mitosis
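Throughout, for solubility change mitosis vs G1/S (difference of NP-40 vs SDS log2 ratios): synchronized HeLa Kyoto cells (double thymidine block for G1/S, nocodazole release for mitosis), protein amounts in NP-40 versus SDS lysates quantified by mass spectrometry, three biological replicates.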
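Throughout, for solubility in G1/S (NP-40 vs SDS abundance): HeLa Kyoto cells arrested at G1/S by double thymidine block, proteins quantified by TMT10plex mass spectrometry in mild NP-40 versus SDS extracts, three biological replicates.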

Chain of CABIN1 (chain, as listed by the source): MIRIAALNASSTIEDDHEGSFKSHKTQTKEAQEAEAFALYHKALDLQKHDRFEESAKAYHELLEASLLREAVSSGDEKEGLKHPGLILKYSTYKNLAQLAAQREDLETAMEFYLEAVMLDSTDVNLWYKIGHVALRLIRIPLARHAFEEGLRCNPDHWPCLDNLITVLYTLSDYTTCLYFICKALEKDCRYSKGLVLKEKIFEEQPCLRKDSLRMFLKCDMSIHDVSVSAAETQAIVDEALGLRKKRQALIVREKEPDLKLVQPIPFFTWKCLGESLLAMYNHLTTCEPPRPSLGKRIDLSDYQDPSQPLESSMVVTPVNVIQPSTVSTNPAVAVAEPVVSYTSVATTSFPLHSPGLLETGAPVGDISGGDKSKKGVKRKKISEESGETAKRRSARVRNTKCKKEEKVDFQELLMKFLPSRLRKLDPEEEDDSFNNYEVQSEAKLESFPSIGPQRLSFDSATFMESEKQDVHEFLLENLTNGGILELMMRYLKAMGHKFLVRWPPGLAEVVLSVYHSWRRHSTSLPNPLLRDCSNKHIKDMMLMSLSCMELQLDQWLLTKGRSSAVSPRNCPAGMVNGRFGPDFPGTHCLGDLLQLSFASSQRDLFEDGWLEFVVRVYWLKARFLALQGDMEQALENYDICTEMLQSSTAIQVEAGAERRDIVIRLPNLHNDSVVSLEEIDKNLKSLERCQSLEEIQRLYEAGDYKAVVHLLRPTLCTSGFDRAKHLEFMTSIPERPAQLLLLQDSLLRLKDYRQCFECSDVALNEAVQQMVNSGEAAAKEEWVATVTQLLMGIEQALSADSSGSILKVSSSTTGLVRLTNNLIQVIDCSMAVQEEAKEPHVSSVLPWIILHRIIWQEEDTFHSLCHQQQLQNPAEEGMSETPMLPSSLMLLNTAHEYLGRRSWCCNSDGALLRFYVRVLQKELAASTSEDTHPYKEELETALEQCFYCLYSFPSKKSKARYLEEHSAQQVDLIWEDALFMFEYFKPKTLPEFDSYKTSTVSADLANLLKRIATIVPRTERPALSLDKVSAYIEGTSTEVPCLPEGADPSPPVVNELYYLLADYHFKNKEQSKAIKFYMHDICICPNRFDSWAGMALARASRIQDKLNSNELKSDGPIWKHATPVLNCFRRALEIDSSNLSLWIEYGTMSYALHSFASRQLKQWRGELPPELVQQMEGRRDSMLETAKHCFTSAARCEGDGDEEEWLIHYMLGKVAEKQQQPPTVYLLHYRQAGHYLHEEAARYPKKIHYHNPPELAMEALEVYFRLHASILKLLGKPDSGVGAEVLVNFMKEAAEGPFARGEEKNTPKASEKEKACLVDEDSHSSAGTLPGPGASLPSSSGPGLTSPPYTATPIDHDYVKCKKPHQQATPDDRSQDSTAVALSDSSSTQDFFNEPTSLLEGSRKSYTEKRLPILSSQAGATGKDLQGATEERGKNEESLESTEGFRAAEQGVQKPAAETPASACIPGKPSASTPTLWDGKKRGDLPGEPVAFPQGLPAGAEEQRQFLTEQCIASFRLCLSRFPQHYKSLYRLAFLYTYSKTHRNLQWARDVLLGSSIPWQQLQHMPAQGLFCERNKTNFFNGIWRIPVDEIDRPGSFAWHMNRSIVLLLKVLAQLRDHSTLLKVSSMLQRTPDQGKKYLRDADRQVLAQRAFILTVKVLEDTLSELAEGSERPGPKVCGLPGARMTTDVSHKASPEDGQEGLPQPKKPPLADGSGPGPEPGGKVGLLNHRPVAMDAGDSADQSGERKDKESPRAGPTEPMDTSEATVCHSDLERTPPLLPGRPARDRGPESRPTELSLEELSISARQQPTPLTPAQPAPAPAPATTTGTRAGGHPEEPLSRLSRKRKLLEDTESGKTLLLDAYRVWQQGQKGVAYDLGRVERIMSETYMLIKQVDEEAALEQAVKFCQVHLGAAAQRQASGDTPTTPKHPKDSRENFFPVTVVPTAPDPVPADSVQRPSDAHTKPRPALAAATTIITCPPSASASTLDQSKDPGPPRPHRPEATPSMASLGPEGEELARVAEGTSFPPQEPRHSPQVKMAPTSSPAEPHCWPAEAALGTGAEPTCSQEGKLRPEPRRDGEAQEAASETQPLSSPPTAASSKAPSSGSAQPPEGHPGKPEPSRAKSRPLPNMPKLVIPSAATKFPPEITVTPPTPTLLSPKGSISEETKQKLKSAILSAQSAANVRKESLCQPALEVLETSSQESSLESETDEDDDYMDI

| Substance | solubility in G1/S (log2) (HeLa Kyoto [1]) | solubility change mitosis (log2) (HeLa Kyoto [2]) |
| --- | --- | --- |
| MSTAMNFGTKSFQPRPPDKGSFPLDHLGECKSFKEKFMKCLHNNNFENALCRKESKEYLECRMERKLMLQEPLEKLGFGDLTSGKSEAKK [COX19] | 0.00408 | 0.143 |
| MAAVEAAAEPVTVVAAVGPKAKDEEEEEEEPLPPCEAVRWAPVGAVAEARPGATAFLEEATAEEPGAAPGSPPDSPGRTLRRLRAERRRLDSALLALSSHFAQVQFRLRQVVRGAPAEQQRLLRELEDFAFRGCPHVLGYEGPGDPASDEGDGLPGDRPWLRGEDQSEQEKQERLETQREKQKELILQLKTQLDDLETFAYQEGSYDSLPQSVVLERQRVIIDELIKKLDMNLNEDISSLSTEELRQRVDAAVAQIVNPARVKEQLVEQLKTQIRDLEMFINFIQDEVGSPLQTGGGHCECKAGGKTGNGCSRTGSSRTPPGNSKTKAEDVKKVRETGLHLMRRALAVLQIFAVSQFGCATGQIPPTLWQRVQADRDYSPLLKRLEVSVDRVKQLALRQQPHDHVITSANLQDLSLGGKDELTMAVRKELTVAVRDLLAHGLYASSPGMSLVMAPIACLLPAFSSAPEAMHPWELFVKYYHAKNGRAYVESPARKLSQSFALPVTGGTVVTPKQSLLTAIHMVLTEHDPFKRSADSELKALVCMALNEQRLVSWVNLICKSGSLIEPHYQPWSYMAHTGFESALNLLSRLSSLKFSLPVDLAVRQLKNIKDAF [RUNDC1] | -0.124 | -0.215 |
| TET2 | 0.155 | -0.257 |
| MAVTEASLLRQCPLLLPQNRSKTVYEGFISAQGRDFHLRIVLPEDLQLKNARLLCSWQLRTILSGYHRIVQQRMQHSPDLMSFMMELKMLLEVALKNRQELYALPPPPQFYSSLIEEIGTLGWDKLVYADTCFSTIKLKAEDASGREHLITLKLKAKYPAESPDYFVDFPVPFCASWTPQSSLISIYSQFLAAIESLKAFWDVMDEIDEKTWVLEPEKPPRSATARRIALGNNVSINIEVDPRHPTMLPECFFLGADHVVKPLGIKLSRNIHLWDPENSVLQNLKDVLEIDFPARAILEKSDFTMDCGICYAYQLDGTIPDQVCDNSQCGQPFHQICLYEWLRGLLTSRQSFNIIFGECPYCSKPITLKMSGRKH [FANCL] | 0.184 | 0.0266 |
| BAHCC1 | -0.00383 | 0.257 |
| MRRSRSSAAAKLRGQKRSGASGASAAPAASAAAALAPSATRTRRSASQAGSKSQAVEKPPSEKPRLRRSSPRAQEEGPGEPPPPELALLPPPPPPPPTPATPTSSASNLDLGEQRERWETFQKRQKLTSEGAAKLLLDTFEYQGLVKHTGGCHCGAVRFEVWASADLHIFDCNCSICKKKQNRHFIVPASRFKLLKGAEHITTYTFNTHKAQHTFCKRCGVQSFYTPRSNPGGFGIAPHCLDEGTVRSMVTEEFNGSDWEKAMKEHKTIKNMSKE [CENPV] | -2.01 | 0.822 |
| MATPRGRTKKKASFDHSPDSLPLRSSGRQAKKKATETTDEDEDGGSEKKYRKCEKAGCTATCPVCFASASERCAKNGYTSRWYHLSCGEHFCNECFDHYYRSHKDGYDKYTTWKKIWTSNGKTEPSPKAFMADQQLPYWVQCTKPECRKWRQLTKEIQLTPQIAKTYRCGMKPNTAIKPETSDHCSLPEDLRVLEVSNHWWYSMLILPPLLKDSVAAPLLSAYYPDCVGMSPSCTSTNRAAATGNASPGKLEHSKAALSVHVPGMNRYFQPFYQPNECGKALCVRPDVMELDELYEFPEYSRDPTMYLALRNLILALWYTNCKEALTPQKCIPHIIVRGLVRIRCVQEVERILYFMTRKGLINTGVLSVGADQYLLPKDYHNKSVIIIGAGPAGLAAARQLHNFGIKVTVLEAKDRIGGRVWDDKSFKGVTVGRGAQIVNGCINNPVALMCEQLGISMHKFGERCDLIQEGGRITDPTIDKRMDFHFNALLDVVSEWRKDKTQLQDVPLGEKIEEIYKAFIKESGIQFSELEGQVLQFHLSNLEYACGSNLHQVSARSWDHNEFFAQFAGDHTLLTPGYSVIIEKLAEGLDIQLKSPVQCIDYSGDEVQVTTTDGTGYSAQKVLVTVPLALLQKGAIQFNPPLSEKKMKAINSLGAGIIEKIALQFPYRFWDSKVQGADFFGHVPPSASKRGLFAVFYDMDPQKKHSVLMSVIAGEAVASVRTLDDKQVLQQCMATLRELFKEQEVPDPTKYFVTRWSTDPWIQMAYSFVKTGGSGEAYDIIAEDIQGTVFFAGEATNRHFPQTVTGAYLSGVREASKIAAF [KDM1B] | -0.371 | 0.0563 |
| MAP3K1 | -0.0921 | -0.131 |
| CABIN1 | -0.34 | 0.144 |
| MADAAATAGAGGSGTRSGSKQSTNPADNYHLARRRTLQVVVSSLLTEAGFESAEKASVETLTEMLQSYISEIGRSAKSYCEHTARTQPTLSDIVVTLVEMGFNVDTLPAYAKRSQRMVITAPPVTNQPVTPKALTAGQNRPHPPHIPSHFPEFPDPHTYIKTPTYREPVSDYQVLREKAASQRRDVERALTRFMAKTGETQSLFKDDVSTFPLIAARPFTIPYLTALLPSELEMQQMEETDSSEQDEQTDTENLALHISMEDSGAEKENTSVLQQNPSLSGSRNGEENIIDNPYLRPVKKPKIRRKKSLS [TAF8] | 0.116 | 0.0206 |
| MGSAFERVVRRVVQELDHGGEFIPVTSLQSSTGFQPYCLVVRKPSSSWFWKPRYKCVNLSIKDILEPDAAEPDVQRGRSFHFYDAMDGQIQGSVELAAPGQAKIAGGAAVSDSSSTSMNVYSLSVDPNTWQTLLHERHLRQPEHKVLQQLRSRGDNVYVVTEVLQTQKEVEVTRTHKREGSGRFSLPGATCLQGEGQGHLSQKKTVTIPSGSTLAFRVAQLVIDSDLDVLLFPDKKQRTFQPPATGHKRSTSEGAWPQLPSGLSMMRCLHNFLTDGVPAEGAFTEDFQGLRAEVETISKELELLDRELCQLLLEGLEGVLRDQLALRALEEALEQGQSLGPVEPLDGPAGAVLECLVLSSGMLVPELAIPVVYLLGALTMLSETQHKLLAEALESQTLLGPLELVGSLLEQSAPWQERSTMSLPPGLLGNSWGEGAPAWVLLDECGLELGEDTPHVCWEPQAQGRMCALYASLALLSGLSQEPH [GSDMD] | 0.121 | -0.218 |
| MSTQDERQINTEYAVSLLEQLKLFYEQQLFTDIVLIVEGTEFPCHKMVLATCSSYFRAMFMSGLSESKQTHVHLRNVDAATLQIIITYAYTGNLAMNDSTVEQLYETACFLQVEDVLQRCREYLIKKINAENCVRLLSFADLFSCEELKQSAKRMVEHKFTAVYHQDAFMQLSHDLLIDILSSDNLNVEKEETVREAAMLWLEYNTESRSQYLSSVLSQIRIDALSEVTQRAWFQGLPPNDKSVVVQGLYKSMPKFFKPRLGMTKEEMMIFIEASSENPCSLYSSVCYSPQAEKVYKLCSPPADLHKVGTVVTPDNDIYIAGGQVPLKNTKTNHSKTSKLQTAFRTVNCFYWFDAQQNTWFPKTPMLFVRIKPSLVCCEGYIYAIGGDSVGGELNRRTVERYDTEKDEWTMVSPLPCAWQWSAAVVVHDCIYVMTLNLMYCYFPRSDSWVEMAMRQTSRSFASAAAFGDKIFYIGGLHIATNSGIRLPSGTVDGSSVTVEIYDVNKNEWKMAANIPAKRYSDPCVRAVVISNSLCVFMRETHLNERAKYVTYQYDLELDRWSLRQHISERVLWDLGRDFRCTVGKLYPSCLEESPWKPPTYLFSTDGTEEFELDGEMVALPPV [KBTBD2] | -0.319 | -0.00685 |
| MGPKRRQLTFREKSRIIQEVEENPDLRKGEIARRFNIPPSTLSTILKNKRAILASERKYGVASTCRKTNKLSPYDKLEGLLIAWFQQIRAAGLPVKGIILKEKALRIAEELGMDDFTASNGWLDRFRRRHGVVSCSGVARARARNAAPRTPAAPASPAAVPSEGSGGSTTGWRAREEQPPSVAEGYASQDVFSATETSLWYDFLPDQAAGLCGGDGRPRQATQRLSVLLCANADGSEKLPPLVAGKSAKPRAGQAGLPCDYTANSKGGVTTQALAKYLKALDTRMAAESRRVLLLAGRLAAQSLDTSGLRHVQLAFFPPGTVHPLERGVVQQVKGHYRQAMLLKAMAALEGQDPSGLQLGLTEALHFVAAAWQAVEPSDIAACFREAGFGGGPNATITTSLKSEGEEEEEEEEEEEEEEGEGEEEEEEGEEEEEEGGEGEELGEEEEVEEEGDVDSDEEEEEDEESSSEGLEAEDWAQGVVEAGGSFGAYGAQEEAQCPTLHFLEGGEDSDSDSEEEDDEEEDDEDEDDDDDEEDGDEVPVPSFGEAMAYFAMVKRYLTSFPIDDRVQSHILHLEHDLVHVTRKNHARQAGVRGLGHQS [CENPB] | -0.711 | -0.105 |
| MWGFRLLRSPPLLLLLPQLGIGNASSCSQARTMNPGGSGGARCSLSAEVRRRQCLQLSTVPGADPQRSNELLLLAAAGEGLERQDLPGDPAKEEPQPPPQHHVLYFPGDVQNYHEIMTRHPENYQWENWSLENVATILAHRFPNSYIWVIKCSRMHLHKFSCYDNFVKSNMFGAPEHNTDFGAFKHLYMLLVNAFNLSQNSLSKKSLNVWNKDSIASNCRSSPSHTTNGCQGEKVRTCEKSDESAMSFYPPSLNDASFTLIGFSKGCVVLNQLLFELKEAKKDKNIDAFIKSIRTMYWLDGGHSGGSNTWVTYPEVLKEFAQTGIIVHTHVTPYQVRDPMRSWIGKEHKKFVQILGDLGMQVTSQIHFTKEAPSIENHFRVHEVF [C2ORF69] | 0.0592 | 0.0615 |
| MHGHGGYDSDFSDDERCGESSKRKKRTVEDDLLLQKPFQKEKHGKVAHKQVAAELLDREEARNRRFHLIAMDAYQRHTKFVNDYILYYGGKKEDFKRLGENDKTDLDVIRENHRFLWNEEDEMDMTWEKRLAKKYYDKLFKEYCIADLSKYKENKFGFRWRVEKEVISGKGQFFCGNKYCDKKEGLKSWEVNFGYIEHGEKRNALVKLRLCQECSIKLNFHHRRKEIKSKKRKDKTKKDCEESSHKKSRLSSAEEASKKKDKGHSSSKKSEDSLLRNSDEEESASESELWKGPLPETDEKSQEEEFDEYFQDLFL [FRA10AC1] | -0.47 | 0.365 |
| MAAIAASEVLVDSAEEGSLAAAAELAAQKREQRLRKFRELHLMRNEARKLNHQEVVEEDKRLKLPANWEAKKARLEWELKEEEKKKECAARGEDYEKVKLLEISAEDAERWERKKKRKNPDLGFSDYAAAQLRQYHRLTKQIKPDMETYERLREKHGEEFFPTSNSLLHGTHVPSTEEIDRMVIDLEKQIEKRDKYSRRRPYNDDADIDYINERNAKFNKKAERFYGKYTAEIKQNLERGTAV [SYF2] | 0.12 | 0.188 |
| CHD2 | -1.9 | 0.389 |
| MASNFKKANMASSSQRKRMSPKPELTEEQKQEIREAFDLFDADGTGTIDVKELKVAMRALGFEPKKEEIKKMISEIDKEGTGKMNFGDFLTVMTQKMSEKDTKEEILKAFKLFDDDETGKISFKNLKRVAKELGENLTDEELQEMIDEADRDGDGEVSEQEFLRIMKKTSLY [CETN2] | 0.117 | 0.68 |
| MEASRCRLSPSGDSVFHEEMMKMRQAKLDYQRLLLEKRQRKKRLEPFMVQPNPEARLRRAKPRASDEQTPLVNCHTPHSNVILHGIDGPAAVLKPDEVHAPSVSSSVVEEDAENTVDTASKPGLQERLQKHDISESVNFDEETDGISQSACLERPNSASSQNSTDTGTSGSATAAQPADNLLGDIDDLEDFVYSPAPQGVTVRCRIIRDKRGMDRGLFPTYYMYLEKEENQKIFLLAARKRKKSKTANYLISIDPVDLSREGESYVGKLRSNLMGTKFTVYDRGICPMKGRGLVGAAHTRQELAAISYETNVLGFKGPRKMSVIIPGMTLNHKQIPYQPQNNHDSLLSRWQNRTMENLVELHNKAPVWNSDTQSYVLNFRGRVTQASVKNFQIVHKNDPDYIVMQFGRVADDVFTLDYNYPLCAVQAFGIGLSSFDSKLACE [TULP3] | 0.0464 | -0.00836 |
